Holding throughout (assay): SPR
On the technique in general: Surface plasmon resonance follows binding to a sensor surface in real time, without labels.

Experiment [1] deals with Recombinant human PD-1-His (Sino Biological catalog #10377-H08H-B) (UniProt Q15116 25-167).
The target of experiment [2] is T1, Recombinant rhesus monkey PD-1-His (Sino Biological catalog #90305-K08H).
T1 chain: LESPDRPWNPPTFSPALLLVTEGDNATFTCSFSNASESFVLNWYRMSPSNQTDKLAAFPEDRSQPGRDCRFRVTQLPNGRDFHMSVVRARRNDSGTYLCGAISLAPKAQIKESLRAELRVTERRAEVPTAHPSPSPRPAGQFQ

Experiment [3] addresses T2, Recombinant cynomolgus monkey PD-1-His (Sino Biological catalog #90311-C08H).
T2 chain: T1 chain with P10A, R67Q, Q75R

Broadly, the Kd is the free concentration of one partner at which half of the binding sites on the other are occupied at equilibrium, for simple one-to-one binding.

Residue numbers refer to the chain shown, from its start.

B1: HPD-BB9 (antibody, V domains shown)
VH: QVQLVQSGAEVKKPGASVKVSCKASGFRLTTNGISWVRQAPGQGLEWMGWISAGGGPTNYAQKLQGRVTMTTDTSTSTAYMELRSLRSDDTAVYYCAKGLYGTKDAWGQGTLVTVSS
VL: QSVLTQPPSVSEVPGQRVTISCSGGGSNIGSNAVNWYQHFPGKAPKLLIYYNDLLPSGVSDRFSASKSGTSASLAISGLRSEDEADYYCAAWDDNLSAYVFATGTKVTVL
In the case of B1, the Kd in experiment [1] was 12.2 nM; in experiment [2], 3.33 nM; in experiment [3] it was 35.2 nM.

(Values after US20230235059A1 (published 2023).)
